Data as given in patent US20240101645A1 (HENRY M JACKSON FOUNDATION FOR THE ADVANCEMENT OF MILITARY …, published 2024).

Tests used:
[1] = molecular target: T1, HCoV-OC43 spike antigens (bead panel) (HCoV-OC43, UniProt P36334 14-1297); test: multiplex bead assay
T1 sequence: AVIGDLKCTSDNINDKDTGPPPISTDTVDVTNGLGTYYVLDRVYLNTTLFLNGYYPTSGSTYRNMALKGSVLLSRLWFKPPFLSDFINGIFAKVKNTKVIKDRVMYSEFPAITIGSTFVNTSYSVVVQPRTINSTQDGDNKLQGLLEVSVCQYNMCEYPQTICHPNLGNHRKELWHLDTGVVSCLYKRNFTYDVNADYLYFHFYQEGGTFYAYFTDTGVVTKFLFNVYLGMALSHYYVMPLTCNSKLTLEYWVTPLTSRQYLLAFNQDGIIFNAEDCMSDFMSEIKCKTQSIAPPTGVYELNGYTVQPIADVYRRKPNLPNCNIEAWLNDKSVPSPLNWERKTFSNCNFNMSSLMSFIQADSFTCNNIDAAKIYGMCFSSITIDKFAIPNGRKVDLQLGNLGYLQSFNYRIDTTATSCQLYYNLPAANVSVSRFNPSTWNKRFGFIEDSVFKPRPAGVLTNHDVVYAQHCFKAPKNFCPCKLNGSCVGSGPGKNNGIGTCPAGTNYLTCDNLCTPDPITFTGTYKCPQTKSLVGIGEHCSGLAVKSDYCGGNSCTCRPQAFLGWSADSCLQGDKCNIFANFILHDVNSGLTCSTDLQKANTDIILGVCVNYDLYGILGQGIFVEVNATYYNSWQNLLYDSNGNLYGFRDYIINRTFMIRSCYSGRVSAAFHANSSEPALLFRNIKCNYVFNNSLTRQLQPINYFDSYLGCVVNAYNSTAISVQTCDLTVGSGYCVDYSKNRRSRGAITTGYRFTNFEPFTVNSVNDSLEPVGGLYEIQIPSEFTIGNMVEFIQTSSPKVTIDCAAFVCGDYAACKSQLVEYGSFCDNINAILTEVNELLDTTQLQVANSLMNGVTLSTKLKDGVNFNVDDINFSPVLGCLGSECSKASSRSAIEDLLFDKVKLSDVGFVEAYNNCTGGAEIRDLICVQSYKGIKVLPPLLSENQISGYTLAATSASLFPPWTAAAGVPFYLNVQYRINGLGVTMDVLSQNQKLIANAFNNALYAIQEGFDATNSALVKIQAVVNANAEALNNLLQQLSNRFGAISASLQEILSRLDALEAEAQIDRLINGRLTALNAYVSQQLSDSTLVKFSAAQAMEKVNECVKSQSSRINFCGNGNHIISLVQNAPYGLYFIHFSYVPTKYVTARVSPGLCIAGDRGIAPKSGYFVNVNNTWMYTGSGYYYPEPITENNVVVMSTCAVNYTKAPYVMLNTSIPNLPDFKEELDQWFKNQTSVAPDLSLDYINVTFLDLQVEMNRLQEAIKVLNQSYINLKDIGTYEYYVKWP

[2] = molecular target: T2, HCoV-NL63 spike antigens (bead panel) (HCoV-NL63, UniProt Q6Q1S2 19-1296); test: multiplex bead assay
T2 sequence: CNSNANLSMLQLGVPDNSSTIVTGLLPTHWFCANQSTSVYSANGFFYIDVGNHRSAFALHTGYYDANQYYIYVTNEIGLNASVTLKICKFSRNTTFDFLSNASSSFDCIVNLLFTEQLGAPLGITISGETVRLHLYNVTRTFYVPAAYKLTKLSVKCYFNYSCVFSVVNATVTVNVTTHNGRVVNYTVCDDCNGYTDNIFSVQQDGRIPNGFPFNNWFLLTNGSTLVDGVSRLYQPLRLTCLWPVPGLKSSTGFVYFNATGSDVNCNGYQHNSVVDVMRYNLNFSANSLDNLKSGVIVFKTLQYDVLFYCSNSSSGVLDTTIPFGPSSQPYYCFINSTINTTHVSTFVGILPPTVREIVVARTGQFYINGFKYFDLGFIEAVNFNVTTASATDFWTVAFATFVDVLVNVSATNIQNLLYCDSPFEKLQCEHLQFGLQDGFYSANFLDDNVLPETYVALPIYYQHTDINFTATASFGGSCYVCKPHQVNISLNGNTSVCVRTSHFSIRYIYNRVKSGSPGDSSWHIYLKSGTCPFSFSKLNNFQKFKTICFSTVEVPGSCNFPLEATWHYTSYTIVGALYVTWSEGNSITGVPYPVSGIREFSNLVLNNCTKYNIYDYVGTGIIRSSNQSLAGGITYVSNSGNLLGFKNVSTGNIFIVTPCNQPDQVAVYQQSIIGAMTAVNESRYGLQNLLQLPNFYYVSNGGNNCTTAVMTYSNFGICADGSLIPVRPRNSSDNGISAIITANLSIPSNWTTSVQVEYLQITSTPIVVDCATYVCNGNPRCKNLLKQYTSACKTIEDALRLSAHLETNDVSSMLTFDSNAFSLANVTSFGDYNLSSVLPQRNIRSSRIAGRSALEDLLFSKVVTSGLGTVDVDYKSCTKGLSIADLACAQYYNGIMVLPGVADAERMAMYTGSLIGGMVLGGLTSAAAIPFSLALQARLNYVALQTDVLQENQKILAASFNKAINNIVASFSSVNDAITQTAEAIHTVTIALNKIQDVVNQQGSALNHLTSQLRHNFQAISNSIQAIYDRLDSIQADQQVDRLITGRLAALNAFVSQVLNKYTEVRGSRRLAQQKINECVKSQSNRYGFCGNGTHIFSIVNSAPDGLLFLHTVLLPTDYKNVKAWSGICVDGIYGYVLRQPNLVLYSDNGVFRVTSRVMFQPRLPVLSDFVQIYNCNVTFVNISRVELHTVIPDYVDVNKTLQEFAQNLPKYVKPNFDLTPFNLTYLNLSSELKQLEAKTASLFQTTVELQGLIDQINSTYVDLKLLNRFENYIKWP

| Binder | binding result [1] | binding result [2] |
| --- | --- | --- |
| COV_2174 (antibody, V domains shown, human IgG1) VH: EVQLAESGGGLVKPGGSLRLSCAASGFTFSDYYMSWIRQAPGKGLEWVSYISSSGSTIYYADSVKGRFTISRDNAKNSLYLQMNSLRAEDTAVYYCARDWSVVVVPAAPAVDVWGQGTTVTVSS VL: DIQMTQSPSSLSASVGDRVTITCRASQGISNYLAWFQQKPGKAPKSLIYAASSLQSGVPSKFSGSGSGTDFTLTISSLQPEDFATYYCQQYNSYPLTFGGGTKVEIKR | no binding | no binding |
| COV_2143 (antibody, V domains shown, human IgG1) VH: EVQLVESGGGVVQPGRSLRLSCAASGFTFNSFAMLWVRQAPGKGLEWVALFSYDGSNKYYADSVKGRFTISRDNSKNTLYLQMNNLRAVDTAVYYCARASPYDINGYYLHRIAFDIWGQGTMVTVSS VL: QSVLMQPPSVSGAPGQRVTISCTGSSSNIGAGYDVHWYQQLPGTAPKLLMYGNSNRPSGVPDRFSGSKSGTSASLAITGLQAEDEADYYCQSYDSGLSGWVFGGGTKLTVLG | no binding | no binding |
| COV_3077 (antibody, V domains shown, human IgG1) VH: QVQLQESGPGLVKPSETLSLTCAVSGYSISSGYYWGWIRQPPGKGLEWIGSIYHSGSTYYNPSLKSRVTISVDTSKNQFSLKLSSVTAADTAVYYCARALYDAFDIWGQGTMVTVSS VL: not shown | no binding | no binding |
| COV_2027 (antibody, V domains shown, human IgG1) VH: EVQLVESGGGLIQPGGSLRLSCAASGFSVSTNYMSWVRQAPGKGLEWVSIIYSGGGTYYADSVKGRFTISRDTSENTLYLQMNSLRAEDTAVYYCASFLVGATGQPWYWGQGTLVTVSS VL: not shown | no binding | no binding |
| COV_2025 (antibody, V domains shown, human IgG1) VH: QVHLVQSGAEVKKPGASVKVSCKVSGYTLVELSVHWVRQAPAKGLEWIGGFDPEDGETIYAQKFQGRVTMTEDTSTDTAYMELTNLRSEDTAVYYCVTSQPFVSPNWFDPWGQGTLVTVSS VL: QSALTQPASVSGSPGQSITISCTGTSRDVGAYNYVSWYQQHPGKAPKLMIYEVTTRPSGVSNRFSGSKSGNTASLTISGLQAEDEADYYCSSYTGSRTLVFGTGTKVTVL | no binding | no binding |
| COV_2123 (antibody, V domains shown, human IgG1) VH: EVQLVESGGGVVQPGRSLRLSCAASGFTFSSYAMHWVRQAPGKGLEWVAVLSYDGSNKYNADSVKGRFTISRDNSKNTLYLQMNSLRVEDTAMYYCARDGVSVTMVRGVIGPLCDYWGQGTLVTVSS VL: not shown | no binding | no binding |
| COV_2014 (antibody, V domains shown, human IgG1) VH: QVQLVQSGAEVKKPGASVKVSCKVSGYTLTELSMHWVRQAPGKGLEWMGGFDPEDGETIYAQKFQGRVTMTEDTSTDTAYMELSSLRSEDTAVYYCATGKINYYDSSGYYGTFDYWGQGTLVTVSS VL: AIQLTQSPSSLSASVGDRVTITCRASQGISSYLAWYQQKPGKAPKLLIYAASTLQSGVPSRFSGSGSGTDFTLTISSLQPEDFATYYCQQLNSYHLTFGQGTRLEIK | no binding | no binding |
| COV_2172 (SEQ ID NO:872/877) (antibody, V domains shown) VH: EVQLVESGGGVVQPGRSLRLSCAPSGFTFSTYAMHWVRQAPGKGLEWVAVISYDGSIKYYADSVKGRFTISRDNTMNTVFLQMNSLRAEDTAVYFCAKGGERWELFTSFDYWGQGTQVTVSS VL: QSALTQPRSVSGSPGQSVTISCTGTSSDVGGYNYVSWYQQHPGKAPKLMIYDVSKRPSGVPDRFSGSKSGNTASLTISGLQAEDEADYYCCSYAGSYTFVFGGGTKLTVLG | no binding | no binding |
| COV_2039 (antibody, V domains shown, human IgG1) VH: QVQLVQSGAEVKKPGASVKVSCKVSGYMLIELSMHWVRQAPGKGLEWMGGFDPEDAETIYAQEFQGRVTMTEDTSTDTAYMELSSLRSEDTAVYYCTTGPAVTNRPADYWGPGTLVTVSS VL: QSVLTQPPSVSGAPGQRVTISCTGSSSNIGASYDVHWYQQLPGTAPKLLIYANSNRPSGVPDRFSGSKSGTSASLAITGLQAEDEADYYCQSYDSSLSYSVVFGGGTKLTVL | no binding | no binding |
